Earlier results on one substance are cited in publication PMC4569521 (Journal of molecular biology, 2015).

The data set concerns the target ClpXP (Escherichia coli, UniProt P0A6G7+P0A6H1). Conditions: MuA monomers; ref [23].

Chain of ClpXP (P0A6H1 whole entry): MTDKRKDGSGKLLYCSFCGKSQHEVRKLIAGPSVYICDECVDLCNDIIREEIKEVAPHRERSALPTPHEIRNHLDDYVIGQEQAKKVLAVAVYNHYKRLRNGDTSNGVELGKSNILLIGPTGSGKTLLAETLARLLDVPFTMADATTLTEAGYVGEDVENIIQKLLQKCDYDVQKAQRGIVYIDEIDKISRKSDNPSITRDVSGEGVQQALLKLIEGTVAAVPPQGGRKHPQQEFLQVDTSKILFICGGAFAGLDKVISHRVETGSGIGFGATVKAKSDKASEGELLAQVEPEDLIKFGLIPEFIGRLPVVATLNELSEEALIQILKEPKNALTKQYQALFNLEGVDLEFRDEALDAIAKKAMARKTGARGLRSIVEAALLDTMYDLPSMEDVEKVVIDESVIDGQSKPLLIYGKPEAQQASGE
Chain of ClpXP (P0A6G7 15-207 partner): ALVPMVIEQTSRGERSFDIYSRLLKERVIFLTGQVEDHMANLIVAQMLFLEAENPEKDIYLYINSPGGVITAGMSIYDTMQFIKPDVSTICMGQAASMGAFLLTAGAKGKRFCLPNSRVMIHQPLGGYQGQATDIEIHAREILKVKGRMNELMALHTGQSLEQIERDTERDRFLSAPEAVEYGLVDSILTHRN

For the substance “MuA monomers: Phage Mu transposase, ~75kDa, three domains; monomer in solution”, the “appKM for degradation by ClpXP” value was ~ 10 μM.
